± gives the standard deviation of the averaged measurements.
Tested on: ATP
Assay: switch fluorescence ratio, 500 uM ATP over buffer (Cy3 cluster intensity, sum of 5 cycles each) (fold (ratio)); higher = stronger signal-on switching upon ATP binding; sequences stand for … in TCGTCGGCAGCGTCAGATGTGTATAAGAGACAGTTTTTTTTTTTTTTTTTTTTTTTTT…TC
Details: aptamer strand: ATP DNA aptamer (quencher-CACCTGGGGGAGTATTGCGGAGGAAGG + anchor), 100 nM annealed; ATP concentration: 500 uM
Procedure, shortened: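 Switching-strand clusters labelled with Cy3 on a modified Illumina MiSeq flow-cell were annealed to 100 nM quencher-labelled ATP aptamer, imaged in selection buffer, and re-imaged after 15 min with 500 uM ATP at 22 °C. This was done over five cycles with NaOH stripping and re-annealing in between. The fluorescence ratio is summed target-cycle over summed buffer-cycle Cy3 intensity per cluster, averaged per switch-domain sequence, excluding clusters outside 100-1000 RFU.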
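Also: ATP exposure 15 min at 22 °C before imaging.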

| Sequence | switch fluorescence ratio |
| --- | --- |
| AGAAAAAGGA | 1.01 ± 0.044 |
| AGAAAAGGGC | 1.026 ± 0.0014 |
| AGAAAATAGT | 1.03 ± 0.032 |
| AGAAAGCCGG | 0.989 ± 0.014 |
| AGAAAGGATG | 1.01 ± 0.032 |
| AGAAAGGGGG | 0.9954 ± 0.0038 |
| AGAAAGTTTT | 0.993 ± 0.025 |
| AGAAATGGGA | 0.987 ± 0.012 |
| AGAAATGTTA | 1.024 ± 0.0063 |
| AGAAATTTTT | 0.998 ± 0.016 |
| AGAACCATCG | 1.05 ± 0.016 |
| AGAACCTAGT | 0.996 ± 0.031 |
| AGAACCTCTT | 1.06 ± 0.033 |
| AGAACGAAGG | 0.962 ± 0.015 |
| AGAACGGGGC | 1.02 ± 0.023 |
| AGAACTAGGG | 0.974 ± 0.016 |
| AGAAGAAATC | 1.016 ± 0.008 |
| AGAAGAGGGG | 0.987 ± 0.044 |
| AGAAGCAGG | 1.21 ± 0.26 |
| AGAAGCGACA | 0.994 ± 0.032 |
| AGAAGCTAGT | 0.983 ± 0.044 |
| AGAAGGCTGC | 0.978 ± 0.0071 |
| AGAAGGGACG | 0.973 ± 0.021 |

| Sequence | switch fluorescence ratio |
| --- | --- |
| AGAAGGGATT | 1.03 ± 0.015 |
| AGAAGTACGC | 1.17 ± 0.1 |
| AGAAGTCGTG | 1.02 ± 0.012 |
| AGAAGTGAGC | 0.978 ± 0.038 |
| AGAAGTTGGA | 1 ± 0.05 |
| AGAAGTTGGT | 1 ± 0.023 |
| AGAAGTTTGG | 0.989 ± 0.012 |
| AGAATAATAG | 1.02 ± 0.026 |
| AGAATACGGA | 1.05 ± 0.018 |
| AGAATAGAGT | 0.97 ± 0.038 |
| AGAATAGGGG | 0.9762 ± 0.0083 |
| AGAATAGGGT | 0.9901 ± 0.0072 |
| AGAATAGTGG | 0.96 ± 0.037 |
| AGAATCAGCA | 1.01 ± 0.019 |
| AGAATCCTG | 0.995 ± 0.043 |
| AGAATGAGGT | 0.98 ± 0.03 |
| AGAATGGCAG | 0.991 ± 0.029 |
| AGAATGTAAT | 0.9591 ± 0.0014 |
| AGAATGTATG | 0.994 ± 0.021 |
| AGAATGTTGC | 0.9482 ± 0.0035 |
| AGAATTGAGA | 0.971 ± 0.019 |
| AGAATTTTTG | 0.963 ± 0.075 |
| AGACAACGGC | 1.02 ± 0.03 |

| Sequence | switch fluorescence ratio |
| --- | --- |
| AGACAAGTGG | 0.957 ± 0.026 |
| AGACACCCCT | 1.17 ± 0.073 |
| AGACAGGAGA | 0.985 ± 0.019 |
| AGACAGTTGG | 0.99 ± 0.025 |
| AGACATGGGT | 1.02 ± 0.033 |
| AGACCGCTTA | 1.15 ± 0.036 |
| AGACGGAATT | 1.049 ± 0.0063 |
| AGACGGGGCT | 0.975 ± 0.017 |
| AGACGGTCGG | 0.975 ± 0.016 |
| AGACGGTCTG | 0.973 ± 0.0098 |
| AGACGTGCAG | 1.022 ± 0.006 |
| AGACGTGCGT | 1.01 ± 0.048 |
| AGACTCGGGT | 1.02 ± 0.0013 |
| AGACTGAGTT | 0.984 ± 0.016 |
| AGACTGCTGG | 0.977 ± 0.018 |
| AGACTGGAGC | 1.06 ± 0.026 |
| AGACTGTCGA | 1 ± 0.012 |
| AGAGAAAGTA | 0.98799 ± 0.0004 |
| AGAGAAGACC | 1 ± 0.028 |
| AGAGACAGGG | 1.05 ± 0.032 |
| AGAGACCAGC | 1.07 ± 0.028 |
| AGAGACCTCA | 1.045 ± 0.0027 |
| AGAGACGGGG | 1.02 ± 0.013 |

| Sequence | switch fluorescence ratio |
| --- | --- |
| AGAGAGACAG | 0.97 ± 0.057 |
| AGAGAGGGTT | 0.986 ± 0.019 |
| AGAGATATTT | 0.992 ± 0.029 |
| AGAGATGTTG | 0.993 ± 0.045 |
| AGAGCAAGGT | 1.08 ± 0.035 |
| AGAGCCTGGG | 1.04 ± 0.02 |
| AGAGCGGTTC | 1.06 ± 0.11 |
| AGAGCGTTCG | 0.998 ± 0.042 |
| AGAGCTGGGG | 0.9849 ± 0.0079 |
| AGAGGAGGGT | 1.01 ± 0.017 |
| AGAGGGAACA | 1.01 ± 0.02 |
| AGAGGGAGTA | 1 ± 0.022 |
| AGAGGGATAG | 1.19 ± 0.37 |
| AGAGGGCATG | 0.987 ± 0.026 |
| AGAGGGCTTT | 0.988 ± 0.032 |
| AGAGGGGAGT | 1.021 ± 0.0016 |
| AGAGGGGATG | 1.02 ± 0.0081 |
| AGAGGGGCCA | 1.01 ± 0.048 |
| AGAGGGGTTT | 0.98 ± 0.03 |
| AGAGGTAAGA | 0.9911 ± 0.0084 |
| AGAGGTACAC | 1 ± 0.021 |
| AGAGGTTACG | 0.994 ± 0.046 |
| AGAGGTTAGG | 0.9874 ± 0.0033 |

| Sequence | switch fluorescence ratio |
| --- | --- |
| AGAGGTTGGG | 0.98 ± 0.04 |
| AGAGGTTTTT | 0.989 ± 0.019 |
| AGAGTACTCG | 1.05 ± 0.0048 |
| AGAGTACTGG | 1.01 ± 0.01 |
| AGAGTATTGC | 1.04 ± 0.16 |
| AGAGTCAGGC | 1.07 ± 0.044 |
| AGAGTCATGG | 1 ± 0.013 |
| AGAGTCTATC | 0.972 ± 0.044 |
| AGAGTGACGA | 1.008 ± 0.0061 |
| AGAGTGCTAC | 1.04 ± 0.027 |
| AGAGTGGTAG | 0.99 ± 0.013 |
| AGAGTGGTCA | 0.988 ± 0.018 |
| AGAGTTGTGA | 1.02 ± 0.012 |
| AGAGTTTTTT | 0.998 ± 0.018 |
| AGATAAACTC | 1.03 ± 0.051 |
| AGATATGTTG | 0.996 ± 0.012 |
| AGATCAGGAT | 1.02 ± 0.012 |
| AGATCCATTT | 0.991 ± 0.055 |
| AGATCGCTTT | 1.02 ± 0.029 |
| AGATCGTGAG | 0.97 ± 0.038 |
| AGATCGTTTT | 0.999 ± 0.012 |
| AGATCTATTG | 1.03 ± 0.033 |
| AGATCTGCAT | 1.11 ± 0.019 |

| Sequence | switch fluorescence ratio |
| --- | --- |
| AGATGACGGG | 0.975 ± 0.033 |
| AGATGAGGGT | 1 ± 0.02 |
| AGATGATGGG | 0.99 ± 0.017 |
| AGATGCCTGA | 0.989 ± 0.035 |
| AGATGGATTA | 1.025 ± 0.0024 |
| AGATGGCATT | 1 ± 0.048 |
| AGATGGGTAT | 0.986 ± 0.011 |
| AGATGTACTA | 1.04 ± 0.043 |
| AGATGTGTCT | 1.02 ± 0.003 |
| AGATGTTCGG | 0.975 ± 0.025 |
| AGATTAGGAC | 0.97145 ± 0.00024 |
| AGATTATAGC | 1.02 ± 0.045 |
| AGATTATGCA | 1.01 ± 0.048 |
| AGATTCATCA | 0.9931 ± 0.0055 |
| AGATTCATGT | 0.988 ± 0.018 |
| AGATTCCGGT | 0.976 ± 0.016 |
| AGATTCTGTT | 0.945 ± 0.022 |
| AGATTGTACG | 1.006 ± 0.0017 |
| AGATTGTATG | 1.01 ± 0.039 |
| AGATTGTCTC | 0.9573 ± 0.0063 |
| AGATTGTGGT | 0.99 ± 0.018 |
| AGATTTATTT | 1.004 ± 0.0097 |
| AGATTTGGCA | 0.988 ± 0.03 |

| Sequence | switch fluorescence ratio |
| --- | --- |
| AGATTTGTGT | 0.959 ± 0.024 |
| AGATTTGTTG | 0.978 ± 0.034 |
| AGATTTTCCT | 1.19 ± 0.35 |
| AGATTTTGGT | 0.9954 ± 0.0026 |
| AGATTTTGTC | 0.972 ± 0.011 |
| AGATTTTGTT | 0.975 ± 0.017 |
| AGCAAAACGT | 1.17 ± 0.19 |
| AGCAAACGGG | 1.26 ± 0.015 |
| AGCAAAGTA | 0.9748 ± 0.0062 |
| AGCAAATATA | 1.058 ± 0.0057 |
| AGCAACGTTC | 1.07 ± 0.081 |
| AGCAAGGGGC | 1.02 ± 0.023 |
| AGCAAGTCAG | 1.07 ± 0.013 |
| AGCAATCGTT | 1.54 ± 0.071 |
| AGCAATTGGT | 1.062 ± 0.0086 |
| AGCACAAAAA | 1.12 ± 0.096 |
| AGCACGGGTT | 1.21 ± 0.3 |
| AGCAGAAATT | 1.02 ± 0.054 |
| AGCAGCGGGC | 0.997 ± 0.043 |
